target: HLA-A*0301 (human); assay: competitive inhibition of 125I-labelled standard peptide binding to purified HLA-A*0301, gel filtration; conditions: not given

Binder | relative binding ratio (IC50 of standard peptide / IC50 of test peptide) (ratio to standard peptide)
QAEPDRAHY (modifications not checked) [HPV16 E7 44 …] | 0.0002
YCKQQLLRR (modifications not checked) [HPV16 E6 39 …] | 0.0003
CVQSTHVDIR (modifications not checked) [HPV16 E7 68 …] | 0.0049
FTFPNPFPF (modifications not checked) [HPV31 E1 566 … (A03 motif peptide)] | 0.0008
CCKCDSTLR (modifications not checked) [HPV16 E7 58 …] | 0.0003

same assay, conditions: remark: other sources report otherwise

Binder | relative binding ratio (IC50 of standard peptide / IC50 of test peptide) (ratio to standard peptide)
HGDTPTLHEY (modifications not checked) [HPV16 E7 2 …] | 0.0001
GIVCPICSQK (modifications not checked) [HPV16 E7 88 …] | 0.0003
IVCPICSQK (modifications not checked) [HPV16 E7 89 …] | 0.0077

target: HLA-A*2402 (human); assay: competition with 125I-labelled standard peptide for purified HLA-A*2402, gel filtration; conditions: not given

Binder | binding affinity ratio (IC50 of standard peptide / IC50 of test peptide) | relative binding ratio (IC50 of standard peptide / IC50 of test peptide) (ratio to standard peptide)
EYRHYCYSL (modifications not checked) [HPV16 E6 82 …] | 0.0051 | 0.0051
HYCYSLYGTTL (modifications not checked) [HPV16 E6 85 …] | 0.065 | 0.065
HYSDSVYGDTL (modifications not checked) [HPV18 E6 80-90 peptide …] | – | 0.0069
KLTNTGLYNL (modifications not checked) [HPV18 E6 92-101 peptide …] | – | 0.0001

target: HLA-B*5101 (human); assay: competition with 125I-labelled standard peptide for purified HLA, gel filtration; conditions: not given

Binder | relative binding ratio (IC50 of standard peptide / IC50 of test peptide)
CPEEKQRHL (modifications not checked) [HPV31 E6 111 …] | 0.0074

target: HLA-B*5301 (human); assay: as above; conditions: not given

Binder | relative binding ratio (IC50 of standard peptide / IC50 of test peptide)
CPEEKQRHL (modifications not checked) [HPV31 E6 111 …] | 0.0006

target: HLA-A*0201 (human); assay: competition with 125I-labelled standard peptide on purified HLA, gel filtration; conditions: not given

Binder | binding affinity ratio (IC50 of standard peptide / IC50 of test peptide)
STLRLCVQST (modifications not checked) [HPV16 E7 63 …] | 0.0012
TLEDLLMGTL (modifications not checked) | 0.0002
TLRLCVQST (modifications not checked) | 0.0061
YMLDLQPET (modifications not checked) [HPV16 E7 11 …] | 0.14
TLRLCVQSTHV (modifications not checked) | 0.0006
VTFCCKCDST (modifications not checked) [HPV16 E7 55 …] | 0.0001

same assay, conditions: remark: other sources report otherwise

Binder | binding affinity ratio (IC50 of standard peptide / IC50 of test peptide)
TLEDLLMGT (modifications not checked) | 0.0002

target: HLA-A*0201 (human); assay: competition with 125I-labeled standard peptide for purified HLA-A*0201, gel filtration; conditions: not given

Binder | relative binding ratio (IC50 of standard peptide / IC50 of test peptide) (ratio to standard peptide)
MLCMCCKCEA (modifications not checked) [HPV18 E7 peptide … (position 61, 10 amino acids)] | 0.0016
CLDCKWGVLI (modifications not checked) [HPV18 E1 273 peptide …] | 0.0002
FLNTLSFV (modifications not checked) [HPV18 E7 peptide FLNTLSFV (position 90, 8 amino acids)] | 0.0079
KLVVESSADDL (modifications not checked) [HPV18 E7 peptide … (position 73, 11 amino acids)] | 0.0001
AVFKDTYGL (modifications not checked) [HPV18 E1 216 peptide …] | 0.014
VLHLEPQNEI (modifications not checked) [HPV18 E7 peptide … (position 12, 10 amino acids)] | 0.0001
KLVVESSA (modifications not checked) [HPV18 E7 peptide KLVVESSA (position 73, 8 amino acids)] | 0.0001
HLEPQNEIPV (modifications not checked) [HPV18 E7 peptide … (position 14, 10 amino acids)] | 0.0001
GVNHQHLPA (modifications not checked) [HPV18 E7 peptide … (position 43, 9 amino acids)] | 0.0001
LVVESSADDL (modifications not checked) [HPV18 E7 peptide … (position 74, 10 amino acids)] | 0.0001
RAFQQLFLNT (modifications not checked) [HPV18 E7 peptide … (position 84, 10 amino acids)] | 0.0003
HLEPQNEI (modifications not checked) [HPV18 E7 peptide HLEPQNEI (position 14, 8 amino acids)] | 0.0001
VVESSADDL (modifications not checked) [HPV18 E7 peptide … (position 75, 9 amino acids)] | 0.0003

target: HLA-A*0201 (human); assay: inhibition of binding of 125I-labelled standard peptide to purified HLA, gel filtration; conditions: not given

Binder | relative binding ratio (IC50 of standard peptide / IC50 of test peptide)
DLLMGTLGI (modifications not checked) [HPV16 E7 peptide … (position 81, 9 amino acids)] | 0.0002
MLDLQPETTDL (modifications not checked) [HPV16 E7 peptide … (position 12, 11 amino acids)] | 0.0005
HVDIRTLEDL (modifications not checked) [HPV16 E7 peptide … (position 73, 10 amino acids)] | 0.0001
TIHDIILECV (modifications not checked) [HPV16 E6 peptide … (position 29, 10 amino acids)] | 0.021
LMGTLGIV (modifications not checked) [HPV16 E7 peptide LMGTLGIV (position 83, 8 amino acids)] | 0.0001
DLQPETTDL (modifications not checked) [HPV16 E7 peptide … (position 14, 9 amino acids)] | 0.0003
DIRTLEDL (modifications not checked) [HPV16 E7 peptide DIRTLEDL (position 75, 8 amino acids)] | 0.0001
LLMGTLGI (modifications not checked) [HPV16 E7 peptide LLMGTLGI (position 82, 8 amino acids)] | 0.0008

same assay, conditions: remark: other sources report otherwise

Binder | relative binding ratio (IC50 of standard peptide / IC50 of test peptide)
RLCVQSTHV (modifications not checked) [HPV16 E7 peptide … (position 66, 9 amino acids)] | 0.0003
RTLEDLLMGT (modifications not checked) [HPV16 E7 peptide … (position 77, 10 amino acids)] | 0.0006
MLDLQPETT (modifications not checked) [HPV16 E7 peptide … (position 12, 9 amino acids)] | 0.0028
DLLMGTLGIV (modifications not checked) [HPV16 E7 peptide … (position 81, 10 amino acids)] | 0.0005
MLDLQPET (modifications not checked) [HPV16 E7 peptide MLDLQPET (position 12, 8 amino acids)] | 0.0001

target: HLA-A*1101 (human); assay: competition with 125I-labelled standard peptide on purified HLA-A*1101, gel filtration; conditions: not given

Binder | binding affinity ratio (IC50 of standard peptide / IC50 of test peptide) (ratio to standard peptide)
GNPYAVCDK (modifications not checked) [… (HPV16 E6, position 64, 9 amino acids)] | 0.0001
NIRGRWTGR (modifications not checked) [… (HPV16 E6, position 134, 9 amino acids)] | 0.0005
CCRSSRTRR (modifications not checked) [… (HPV16 E6, position 146, 9 amino acids)] | 0.0001
LCPEEKQRH (modifications not checked) [… (HPV16 E6, position 117, 9 amino acids)] | 0.0001
AVCDKCLKFY (modifications not checked) [… (HPV16 E6, position 68, 10 amino acids)] | 0.019
AVCDKCLK (modifications not checked) [AVCDKCLK (HPV16 E6, position 68, 8 amino acids)] | 0.011
CMSCCRSSR (modifications not checked) [… (HPV16 E6, position 143, 9 amino acids)] | 0.0001

same assay, conditions: remark: other sources report otherwise

Binder | binding affinity ratio (IC50 of standard peptide / IC50 of test peptide) (ratio to standard peptide)
HLDKKQRFH (modifications not checked) [… (HPV16 E6, position 125, 9 amino acids)] | 0.0001
IVYRDGNPY (modifications not checked) [… (HPV16 E6, position 59, 9 amino acids)] | 0.15
AMFQDPQER (modifications not checked) [… (HPV16 E6, position 7, 9 amino acids)] | 0.032

From patent US7026443
